# In US7470669B2, “Isolated polypeptide comprising a leptin fragment” (Serono Genetics Institute, S.A., priority 1999, dated 2008):
# Tests used:
# LSR = assay: 125I-chylomicron binding to primary rat hepatocytes; assay type: cell-based; conditions: 20 ng/mL leptin with 0.5 mM oleate
# Experimental: FIGS. 6A, 6B, and 6C show the effect of leptin on ^125I-LDL and ^125I-chylomicron binding to LSR in primary cultures of rat hepatocytes. For FIG. 6A, primary cultures of rat hepatocytes (48 hours after plating) were incubated at 37° C. for 30 min in the absence (□) or presence (▪) of 50 ng/mL leptin in Buffer A, followed by a 20 min incubation at 37° C. with 0.5 mM oleate. The cells were then washed with ice-cold PBS, precooled for 10 min, and then incubated for 1 h at 4° C. with increasing concentrations of ^125I-LDL in Buffer A. Cells were washed, were lysed in 0.1 N NaOH and were counted for radioactivity. Results are shown as the mean of duplicate determinations. For FIG. 6B, primary cultures of rat hepatocytes were incubated at 37° C. for 30 min with or without 20 ng/mL leptin followed by incubation at 37° C. for 4 h with 6 μg protein/mL ^125I-chylomicrons in the absence or presence of 0.5 mM oleate in Buffer A. The cells were then washed and the ^125I-chylomicrons bound to the cell surface were released into the media by incubation with 10 mM suramin. The media was recovered and the radioactivity was measured. Results are shown as the mean±SD of six determinations. […] The amount of ^125I-chylomicrons bound was determined, and results are shown as means±SD of triplicate (irrelevant) or quadruplicate (anti-LSR) determinations. […]
# LSR β = biological target: T1, LSR β (Homo sapiens, UniProt Q86X29); assay: 125I-leptin binding in CHO-K1 cells transiently transfected with LSR β; assay type: cell-based; conditions: transient transfection with LSR β plasmid; 10 ng/mL 125I-leptin
# T1 construct: The full-length LSR α, α′, and β clones were reconstructed in pTracer-CMV2 vector; expressed in transfected cells; host or cells: CHO-K1, transient (Fugene), pTracer-CMV2
# T1 sequence (Q86X29 1-581 isoform Q86X29-5): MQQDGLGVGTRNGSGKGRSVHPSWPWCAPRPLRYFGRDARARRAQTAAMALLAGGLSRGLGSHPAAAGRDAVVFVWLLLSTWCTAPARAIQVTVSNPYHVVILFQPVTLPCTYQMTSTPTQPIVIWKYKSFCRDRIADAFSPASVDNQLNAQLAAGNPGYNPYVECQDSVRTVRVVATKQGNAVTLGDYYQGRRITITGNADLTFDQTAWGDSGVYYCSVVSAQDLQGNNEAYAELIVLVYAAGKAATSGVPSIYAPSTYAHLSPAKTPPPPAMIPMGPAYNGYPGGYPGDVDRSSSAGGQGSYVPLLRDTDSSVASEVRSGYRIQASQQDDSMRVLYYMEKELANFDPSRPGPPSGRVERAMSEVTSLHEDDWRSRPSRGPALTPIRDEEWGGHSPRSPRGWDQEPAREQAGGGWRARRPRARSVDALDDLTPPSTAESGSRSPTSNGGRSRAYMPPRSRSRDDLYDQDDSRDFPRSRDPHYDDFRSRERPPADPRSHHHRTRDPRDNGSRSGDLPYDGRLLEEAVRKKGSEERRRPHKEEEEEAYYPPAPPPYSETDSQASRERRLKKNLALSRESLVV
# Experimental: FIGS. 3A, 3B, 3C, and 3D show the effect of LSR subunit transfection on leptin binding and degradation in CHO-K1 cells. For FIG. 3A, CHO-K1 cells were transfected with increasing concentrations of the α, (□), α′ (▪) or β (◯) LSR plasmid, or vector alone (●) using Fugene transfection reagent. After 48 h, the cells were washed once in PBS and incubated at 37° C. for 2 h with 10 ng/mL of ^125I-leptin in DMEM containing 0.2% (w/v) BSA, 2 mM CaCl2 and 5 mM HEPES, pH 7.4 (Buffer A). The monolayers were washed and lysed with 0.1 N NaOH containing 0.24 mM EDTA, and the lysates were counted. The results are shown as the amount of cell-associated ^125I-leptin. For FIG. 3B, lysates were prepared from CHO-K1 wild type, stable transfectants of vector or LSR α′ subunit, and PLC, and separated on a 10% SDS-polyacrylamide gel under denaturing and reduced conditions. After transfer to nitrocellulose, Western blots were performed using anti-LSR 170 antibody (can also be done with the human equivalent, 93A). […] For FIGS. 3C and 3D, confluent monolayers of stable-transfected cell lines expressing LSR α′ subunit (▪) or vector alone (●) were washed once in PBS and incubated at 37° C. for 2 h with increasing concentrations of ^125I-leptin in Buffer A. The amount of cell-associated (FIG. 3C) and degraded (FIG. 3D) ^125I-leptin was then measured as described herein. […]
substance,measurement,setting,value
"leptin: plasma protein of 16 kDa produced by adipocytes; recombinant human or mouse leptin, species depends on the experiment",binding of chylomicrons to rat hepatocytes,LSR,additive stimulatory effect
same,Leptin binding to CHO-K1 cells,LSR β,remained at levels similar to those seen with the vector alone
